This is an account of results in patent US20250163127A1.

Changes are numbered by the printed parent chain. Names may count otherwise.

B1: variant CD80 R29V/M43Q/E81R/L85I/K89R/D90L/A91E/F92N/K93Q/R94G (Fc fusion)
chain: VIHVTKEVKEVATLSCGHNVSVEELAQTVIYWQKEKKMVLTMQSGDMNIWPEYKNRTIFDITNNLSIVILALRPSDEGTYRCVVIKYERLENQGEHLAEVTLSVKADFPTPSISDFEIPTSNIRRIICSTSGGFPEPHLSWLENGEELNAINTTVSQDPETELYAVSSKLDFNMTTNHSFMCLIKYGHLRVNQTFNWNTTKQEHFPDN
B2: variant CD80 A91G/F92L/F108L/I118V/T120S (Fc fusion)
chain: VIHVTKEVKEVATLSCGHNVSVEELAQTRIYWQKEKKMVLTMMSGDMNIWPEYKNRTIFDITNNLSIVILALRPSDEGTYECVVLKYEKDGLKREHLAEVTLSVKADLPTPSISDFEVPSSNIRRIICSTSGGFPEPHLSWLENGEELNAINTTVSQDPETELYAVSSKLDFNMTTNHSFMCLIKYGHLRVNQTFNWNTTKQEHFPDN
B3: variant CD80 K36G/K37Q/M38I/L40M (Fc fusion)
chain: B2 chain with K36G, K37Q, M38I, L40M, G91A, L92F, L108F, V118I, S120T
B4: variant CD80 E24G/R29D/Y31L/Q33H/K36G/M38I/T41A/M43R/M47T/F59L/E81V/L85R/K89N/A91T/F92P/K93V/R94L/H96R/N149S/C182S (Fc fusion)
chain: VIHVTKEVKEVATLSCGHNVSVEGLAQTDILWHKEGKIVLAMRSGDTNIWPEYKNRTILDITNNLSIVILALRPSDEGTYVCVVRKYENDTPVLERLAEVTLSVKADFPTPSISDFEIPTSNIRRIICSTSGGFPEPHLSWLENGEELSAINTTVSQDPETELYAVSSKLDFNMTTNHSFMSLIKYGHLRVNQTFNWNTTKQEHFPDN
B5: variant PD-L2 IgV H15Q Fc fusion (Fc fusion)
chain: LFTVTVPKELYIIEQGSNVTLECNFDTGSHVNLGAITASLQKVENDTSPHRERATLLEEQLPLGKASFHIPQVQVRDEGQYQCIIIYGVAWDYKYLTLKVKA
B6: variant PD-L2 IgV H15Q/K65R Fc fusion (Fc fusion)
chain: B5 chain with K65R
B7: variant PD-L2 IgV N24D Fc fusion (Fc fusion)
chain: B5 chain with Q15H, N24D
B8: variant PD-L2 IgV V89D Fc fusion (Fc fusion)
chain: B5 chain with Q15H, V89D
B9: variant PD-L2 IgV H15Q/T47A/Q72H/R76G/I86T Fc fusion (Fc fusion)
chain: B5 chain with T47A, Q72H, R76G, I86T
B10: variant PD-L2 IgV S67L/I85F Fc fusion (Fc fusion)
chain: B5 chain with Q15H, S67L, I85F
B11: variant PD-L2 IgV I13V/E44D/Q82R/V89D Fc fusion (Fc fusion)
chain: B5 chain with I13V, Q15H, E44D, Q82R, V89D
B12: variant PD-L2 IgV H15Q/S67L/R76G/I85F Fc fusion (Fc fusion)
chain: B5 chain with S67L, R76G, I85F
B13: variant PD-L2 IgV E44D Fc fusion (Fc fusion)
chain: B5 chain with Q15H, E44D
B14: variant PD-L2 IgV H15Q/Q82R/V89D Fc fusion (Fc fusion)
chain: B5 chain with Q82R, V89D
B15: variant CD80 E35D/L85Q/K93T/E95V/L97Q (Fc fusion)
chain: VIHVTKEVKEVATLSCGHNVSVEELAQTRIYWQKDKKMVLTMMSGDMNIWPEYKNRTIFDITNNLSIVILALRPSDEGTYECVVQKYEKDAFTRVHQAEVT
B16: variant CD80 E35D/D46E/M47V/N63D/L85Q (Fc fusion)
chain: B15 chain with D46E, M47V, N63D, T93K, V95E, Q97L
B17: variant CD80 Q33L/E35D/M47I/N48D/A71G (Fc fusion)
chain: B15 chain with Q33L, M47I, N48D, A71G, Q85L, T93K, V95E, Q97L
B18: variant CD80 Q27H/E35D/M47I/L85Q/D90G (Fc fusion)
chain: B15 chain with Q27H, M47I, D90G, T93K, V95E, Q97L
B19: variant CD80 E35D/M47L/A71G/L85M/F92Y (Fc fusion)
chain: B15 chain with M47L, A71G, Q85M, F92Y, T93K, V95E, Q97L
B20: variant CD80 E35D/M47I/L85Q/D90G (Fc fusion)
chain: B15 chain with M47I, D90G, T93K, V95E, Q97L
B21: variant CD80 E35D/M47I/T62S/L85Q (Fc fusion)
chain: B15 chain with M47I, T62S, T93K, V95E, Q97L
B22: variant CD80 E35D/M47V/N48K/V68M/K89N (Fc fusion)
chain: B15 chain with M47V, N48K, V68M, Q85L, K89N, T93K, V95E, Q97L
B23: variant CD80 E35D/T41S/M43V/M47I/L70M/A71G (Fc fusion)
chain: B15 chain with T41S, M43V, M47I, L70M, A71G, Q85L, T93K, V95E, Q97L
B24: variant CD80 R29H/E35D/M43V/M47I/I49V (Fc fusion)
chain: B15 chain with R29H, M43V, M47I, I49V, Q85L, T93K, V95E, Q97L
B25: variant CD80 E35D/D46E/M47V/V68M/D90G/K93E (Fc fusion)
chain: B15 chain with D46E, M47V, V68M, Q85L, D90G, T93E, V95E, Q97L
B26: variant CD80 V22A/E35D/M47I/Y87N (Fc fusion)
chain: B15 chain with V22A, M47I, Q85L, Y87N, T93K, V95E, Q97L

human PD-1 (human), sequence (Q15116 25-288): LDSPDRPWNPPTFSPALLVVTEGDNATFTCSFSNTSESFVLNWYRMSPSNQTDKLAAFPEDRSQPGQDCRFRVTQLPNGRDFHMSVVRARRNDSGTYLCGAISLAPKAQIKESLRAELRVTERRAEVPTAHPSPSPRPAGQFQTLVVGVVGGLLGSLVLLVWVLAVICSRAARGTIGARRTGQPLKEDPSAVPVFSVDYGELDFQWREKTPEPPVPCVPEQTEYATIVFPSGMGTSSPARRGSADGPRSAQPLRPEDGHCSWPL

The target of one test is CTLA-4 (human). Briefly: flow cytometry, cells expressing CTLA-4. Background: A flow cytometer gives signals particle by particle.
CTLA-4 (human), sequence (chain, as listed by the source): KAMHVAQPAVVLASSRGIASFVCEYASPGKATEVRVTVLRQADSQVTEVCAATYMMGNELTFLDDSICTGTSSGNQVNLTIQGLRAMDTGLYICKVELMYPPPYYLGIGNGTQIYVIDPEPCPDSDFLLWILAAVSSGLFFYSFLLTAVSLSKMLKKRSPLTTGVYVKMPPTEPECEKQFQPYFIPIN
Consider B1, for which the MFI amounted to 996 MFI and the parental ratio came to 0.02.

For B2, the MFI was 128 MFI and the parental ratio was found to be 0.61.

B3: the MFI worked out at 1400 MFI and the parental ratio worked out at 0.03.

With B4, the MFI was determined as 1020 MFI and the parental ratio came to 0.02.

For a further test, the target named is CD28 (human) (UniProt P10747). Briefly: flow cytometry, cells expressing CD28.
As to B1, the MFI is 1030 MFI and the parental ratio worked out at 0.08.

Regarding B2, the MFI was found to be 50 MFI and the parental ratio came out at 0.53.

For B3, the MFI was 1170 MFI and the parental ratio came out at 0.09.

In the case of B4, the MFI came to 1070 MFI and the parental ratio came out at 0.08.

In a further test the target is PD-1-Fc (human) (UniProt Q15116). Briefly: ForteBio Octet, PD-1 on anti-human capture sensor, 100 nM. For orientation: In BLI a coated tip is dipped into the sample, and binding shifts an interference pattern.
PD-1-Fc (human), sequence (Q15116 25-167 limits assumed): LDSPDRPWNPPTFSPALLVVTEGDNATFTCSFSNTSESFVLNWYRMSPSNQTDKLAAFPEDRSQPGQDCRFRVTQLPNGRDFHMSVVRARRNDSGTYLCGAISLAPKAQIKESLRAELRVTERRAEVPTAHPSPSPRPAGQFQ
Turning to B5, the Fortebio Response Units (Response Units) turned out to be 0.007.

Turning to B6, the Fortebio Response Units (Response Units) is -0.001.

B7: the Fortebio Response Units (Response Units) is -0.039.

With B8, the Fortebio Response Units (Response Units) came to 0.005.

For the molecule B9, the Fortebio Response Units (Response Units) came out at 0.512.

Turning to B10, the Fortebio Response Units (Response Units) is -0.005.

Regarding B11, the Fortebio Response Units (Response Units) came to 1.28.

As to B12, the Fortebio Response Units (Response Units) was determined as 0.025.

Regarding B13, the Fortebio Response Units (Response Units) is -0.006.

For B14, the Fortebio Response Units (Response Units) is 1.2.

The target in another test is CTLA-4 (human). Briefly: flow cytometry, CHO cells expressing CTLA4.
Regarding B15, the Fold change to WT CD80 turned out to be 1.57 fold and the MFI at 33.3 nM stood at 246000 MFI.

For B16, the Fold change to WT CD80 is 1.74 fold and the MFI at 33.3 nM was determined as 274000 MFI.

B17 returned a Fold change to WT CD80 of 0.74 fold and an MFI at 33.3 nM of 117000 MFI.

With B18, the Fold change to WT CD80 stood at 1.64 fold and the MFI at 33.3 nM was found to be 258000 MFI.

Turning to B19, the Fold change to WT CD80 is 1.37 fold and the MFI at 33.3 nM was determined as 216000 MFI.

Molecule B20 showed a Fold change to WT CD80 of 1.57 fold and an MFI at 33.3 nM of 248000 MFI.

On to B21, for which the Fold change to WT CD80 turned out to be 1.91 fold and the MFI at 33.3 nM was 301000 MFI.

Take B22: the Fold change to WT CD80 was determined as 0.01 fold and the MFI at 33.3 nM stood at 807 MFI.

Molecule B23 displayed a Fold change to WT CD80 of 1.59 fold and an MFI at 33.3 nM of 249000 MFI.

B24 had a Fold change to WT CD80 of 0.03 fold and an MFI at 33.3 nM of 4690 MFI.

B25 came in with a Fold change to WT CD80 of 1.74 fold and an MFI at 33.3 nM of 273000 MFI.

Consider B26, for which the MFI at 33.3 nM stood at 246000 MFI.

The next test has as its target PD-L1 (human). Briefly: flow cytometry, CHO cells expressing PD-L1.
In turn, B15 showed a Fold change to WT CD80 of 1.67 fold and an MFI at 33.3 nM of 19900 MFI.

With B16, the Fold change to WT CD80 came out at 5.88 fold and the MFI at 33.3 nM worked out at 69800 MFI.

The molecule B17 came in with a Fold change to WT CD80 of 2.62 fold and an MFI at 33.3 nM of 31200 MFI.

B18 returned a Fold change to WT CD80 of 2.58 fold and an MFI at 33.3 nM of 30700 MFI.

B19: the Fold change to WT CD80 amounted to 3.93 fold and the MFI at 33.3 nM turned out to be 46700 MFI.

Molecule B20 showed a Fold change to WT CD80 of 3.01 fold and an MFI at 33.3 nM of 35700 MFI.

For the molecule B21, the Fold change to WT CD80 was 3.79 fold and the MFI at 33.3 nM is 45000 MFI.

With B22, the Fold change to WT CD80 is 7.56 fold and the MFI at 33.3 nM is 89800 MFI.

In the case of B23, the Fold change to WT CD80 was found to be 1.09 fold and the MFI at 33.3 nM stood at 13000 MFI.

As for B24, the Fold change to WT CD80 came out at 0.13 fold and the MFI at 33.3 nM was 1590 MFI.

With B25, the Fold change to WT CD80 is 6.06 fold and the MFI at 33.3 nM is 71900 MFI.

In the next test the target is PD-L1 (human). Briefly: flow cytometry, cells expressing PD-L1.
PD-L1 (human), sequence (chain, as listed by the source): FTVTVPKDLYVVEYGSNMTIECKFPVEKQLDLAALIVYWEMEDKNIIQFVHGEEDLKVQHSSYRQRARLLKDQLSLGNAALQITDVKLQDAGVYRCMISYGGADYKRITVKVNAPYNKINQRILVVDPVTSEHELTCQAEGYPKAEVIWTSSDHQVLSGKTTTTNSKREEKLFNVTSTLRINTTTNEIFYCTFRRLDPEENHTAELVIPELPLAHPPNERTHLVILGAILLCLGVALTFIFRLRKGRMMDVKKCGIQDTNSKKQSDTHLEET
On to B1, for which the MFI came out at 1580 MFI and the parental ratio was 0.09.

As to B2, the MFI was 16 MFI and the parental ratio came to 0.11.

As for B3, the MFI is 959 MFI and the parental ratio was found to be 0.05.

As for B4, the MFI is 1120 MFI and the parental ratio is 0.06.

For another test, the target named is CD28 (human) (UniProt P10747). Briefly: flow cytometry, Jurkat cells (CD28).
With B15, the Fold change to WT CD80 came out at 0.02 fold and the MFI at 33.3 nM turned out to be 400 MFI.

In the case of B16, the Fold change to WT CD80 was 0.07 fold and the MFI at 33.3 nM came to 1330 MFI.

In the case of B17, the Fold change to WT CD80 is 0.04 fold and the MFI at 33.3 nM stood at 644 MFI.

Molecule B18 came in with a Fold change to WT CD80 of 0.19 fold and an MFI at 33.3 nM of 3510 MFI.

B19 showed a Fold change to WT CD80 of 0.14 fold and an MFI at 33.3 nM of 2460 MFI.

Take B20: the Fold change to WT CD80 came to 0.23 fold and the MFI at 33.3 nM amounted to 4100 MFI.

Regarding B21, the Fold change to WT CD80 was 0.1 fold and the MFI at 33.3 nM worked out at 1760 MFI.

The molecule B22 yielded a Fold change to WT CD80 of 0.65 fold and an MFI at 33.3 nM of 11700 MFI.

In the case of B23, the Fold change to WT CD80 was 0.15 fold and the MFI at 33.3 nM is 2700 MFI.

With B24, the Fold change to WT CD80 was found to be 0.02 fold and the MFI at 33.3 nM was determined as 336 MFI.

Molecule B25 had a Fold change to WT CD80 of 1.5 fold and an MFI at 33.3 nM of 27100 MFI.

For B26, the MFI at 33.3 nM came to 15300 MFI.

The next test addresses human PD-1 (human) (UniProt Q15116).
Test: not given
For the molecule B5, the IFN gamma levels pg/mL (MLR) was 1820 pg/mL.

On to B6, for which the IFN gamma levels pg/mL (MLR) amounted to 1510 pg/mL.

Turning to B7, the IFN gamma levels pg/mL (MLR) was found to be 1980 pg/mL.

Molecule B8 had an IFN gamma levels pg/mL (MLR) of 1170 pg/mL.

In the case of B9, the IFN gamma levels pg/mL (MLR) stood at 1600 pg/mL.

B10 came in with an IFN gamma levels pg/mL (MLR) of 1280 pg/mL.

B12: the IFN gamma levels pg/mL (MLR) stood at 1320 pg/mL.

B13 displayed an IFN gamma levels pg/mL (MLR) of 1500 pg/mL.

The molecule B14 yielded an IFN gamma levels pg/mL (MLR) of 1080 pg/mL.
